Measured values as given in patent publication US20250066498A1 (GO THERAPEUTICS, published 2025).
Changes are numbered by the printed parent chain. Read-outs that look alike come from different tables or passages of the source. Ends that are not written are not given here. GalNAc = N-acetylgalactosamine O-linked to a serine or threonine side chain

Assays:
[1] = molecular target: T1, podoplanin glycopeptide ERGTKPPLEELSGK; assay: BLI (Octet), peptide on biosensor, apparent affinity (Example 3)
T1 construct: also called PDPN glycopeptide; Tn antigen derived from podoplanin
T1 peptide: ERGT(GalNAc)KPPLEELSGK
Experimental: Antibody affinity and epitope binning of monoclonal antibodies can be assessed against specific antigens using BLI. […] The affinity is determined by fitting the binding curve to a specific model: a 1:1 monovalent model or a 2:1 bivalent model. The error (>95% confidence) is calculated by how close the generated curve matches the model.
To characterize the cross-reactivity between mAb237 the anti-glyco-LAMP1 antibodies 3C7, 13C3, and 13G2, the affinities of mAb237, 3C7, 13C3, and 13G2 against the glycosylated LAMP1 peptide, the unglycosylated LAMP1 peptide, and the podoplanin glycopeptide were determined by Octet. Table 8 summarizes the dissociation constants (Kd) for mAb237, 3C7, 13C3, and 13G2 against the glycosylated LAMP1 peptide, the unglycosylated LAMP1 peptide, and the podoplanin glycopeptide. No cross reactivity was observed despite the sequence similarities observed between mAb237 and 3C7, 13C3, and 13G2.

[2] = molecular target: T2, LAMP1 without Tn glycans on wild type cells (human, UniProt P11279 29-417, No Tn antigen (the wild type cells are Tn-negative)); assay: cell-based or functional assay
T2 sequence (looked up): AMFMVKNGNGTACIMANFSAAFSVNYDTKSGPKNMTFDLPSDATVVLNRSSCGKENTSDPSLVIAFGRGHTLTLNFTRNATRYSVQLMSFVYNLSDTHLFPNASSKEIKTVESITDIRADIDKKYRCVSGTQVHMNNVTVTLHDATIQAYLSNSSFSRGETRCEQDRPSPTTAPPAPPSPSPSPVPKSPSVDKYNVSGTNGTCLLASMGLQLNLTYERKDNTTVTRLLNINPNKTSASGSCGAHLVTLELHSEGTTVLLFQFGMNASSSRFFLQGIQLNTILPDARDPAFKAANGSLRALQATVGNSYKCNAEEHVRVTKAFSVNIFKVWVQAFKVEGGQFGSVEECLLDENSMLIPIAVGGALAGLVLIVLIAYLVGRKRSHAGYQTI

[3] = molecular target: T3, Tn-glycosylated LAMP1 on COSMC knock-out cells (human, UniProt P11279 29-417, Truncated O-glycans (Tn, GalNAc alpha1-O-Ser/Thr), because the COSMC chaperone is knocked out); assay: cell-based or functional assay
T3 sequence (looked up): T2 sequence (looked up)

[4] = molecular target: T2, LAMP1 without Tn glycans on wild type …; assay: cell-based or functional assay; remark: listed apart in the source
[5] = molecular target: T3, Tn-glycosylated LAMP1 on COSMC …; assay: cell-based or functional assay; remark: listed apart in the source
[6] = molecular target: T4, LAMP1-Tn peptide Biotin-CEQDRPSPTTAPPAPPSPSP (human, N-terminal biotin; O-linked GalNAc on the serine at position 7 and the threonines at positions 9 and 10); assay: BLI (Octet), LAMP1-GP on biosensor
T4 construct: Synthetic 20-mer glycopeptide made by FMOC synthesis; also called LAMP1 glycopeptide; glycosylated LAMP1 peptide
T4 peptide: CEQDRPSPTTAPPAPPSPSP

[7] = molecular target: T4, LAMP1-Tn peptide …; assay: ELISA on plate-coated LAMP1-GP
Experimental: 96-well Corning high bind ELISA microplates plates were coated with LAMP1 peptides titrated in 0.2 M bicarbonate buffer, pH 9.4 overnight at 4° C. in concentrations ranging from 0.08 μg/ml to 10 μg/ml. BSA was used as a control/measure of background. The plates were then blocked with SuperBlock™ (Thermo Fisher) for 1 hr at room temperature. After plate washing, the humanized variants of 13C3 were incubated on the ELISA plate for 1 hour. All tested variants were expressed and purified using conventional methods. Briefly, Expi-293 cells were transiently transfected with heavy and light chain constructs, antibodies were secreted into supernatant and purified using Protein A agarose beads. The plates were then washed, and then incubated with secondary antibody (1/3000 Goat Anti-mouse IgG (H+L) HRP (Abcam 62-6520)) for 1 hour. The plate was then washed and color was developed with 1-Step™ Ultra TMB (Thermo Fisher) for 2 minutes. Color development was then stopped with 2 N Sulfuric Acid. Absorbance at 450 nm was then measured.

[8] = molecular target: T3, Tn-glycosylated LAMP1 on COSMC …; assay: cell-based or functional assay; remark: listed apart in the source

B1: mAb237 (antibody, V domains shown)
VH: QVQLQQSGGGLVQPGGSMKIFCAASGFTFSDAWMDWVRQSPEKGLEWVAEIRNKANNHETYYAESVKGRFTITRDDSKSRMSLQMNSLRAEDTGIYYCSGGKVRNAYWGQGTTVTVSS
VL: DIQLTQTPLSLPVSLGDQASISCRSSQSLVHSVGNTYLHWYLQKPGQSPKLLIYKVSNRFSGVPDRFSGSGSGTDFTLKISSVEAEDLGVYFCSQSTHVPTFGGGTKLEIK
notes: Recombinant mouse antibody bought from Creative Biolabs (Brooks et al., 2010), specific for the podoplanin Tn glycopeptide; also called wild type mAb237
Kd [1]: 1.53 nM

B2: 13G2-ADC (GGFG-DX8951) (other)
VH: EVRLEESGGGLVQPGGSMKLSCVASGFTFSDAWMDWVRQSPERGLEWVAELRSKTFNHATYYAESVRGRFTISRDDSKSTVYLQMNSLRAEDTGIYYCSPNWDEGFAYWGQGTLVTVSA
VL: DVVMTQIPLSLCVSLGDQASISCRSSQSLVHNNGNTYLHWYLQKPGQSPKLLINKVSKRFTGVPDRFSGSGSGTDFTLKISRVEAEDLGVYFCSQSTHVPRTFGGGTKLEIK
modifications: MC-GGFG-DX8951 covalently attached to the antibody (maleimide); site not stated; DAR ~5.6
IC50 for cell death, T47D cells [2]: 4.4 nM | IC50 for cell death, T47D COSMC-KO cells [3]: 5.6 nM

B3: GO-13C3 mouse (vc-PAB-MMAE ADC) (other)
VH: B2 VH with R3K, E6D, V23A, Q39H, R43K, T55A, R67K, S99T
VL: B2 VL with I7T, C12P, N32S, K58N, T61S
modifications: Cleavable MMAE with maleimide (vc-PAB-MMAE) covalently linked; site not stated; DAR ~4
IC50 for cell death, T47D cells [4]: > 100000 nM | IC50 for cell death, T47D COSMC-KO cells [5]: 4.5 nM

B4: 13C3-ADC (GGFG-DX8951) (other)
VH: B2 VH with R3K, E6D, V23A, Q39H, R43K, T55A, R67K, S99T
VL: B2 VL with I7T, C12P, N32S, K58N, T61S
modifications: MC-GGFG-DX8951 covalently attached to the antibody (maleimide); site not stated; DAR ~3.1
IC50 for cell death, T47D cells [2]: 205 nM | IC50 for cell death, T47D COSMC-KO cells [3]: 5.6 nM

B5: 3C7-ADC (GGFG-DX8951) (other)
VH: EVKLEESGGGLVQPGGSMKVSCGASGFTFSDAWMDWVRQSPEKGLEWVAEMRSKAFNHAIYYAESVKGRFTISRDDSKSRVYLQMNLLRPEDTGIYYCTPNWDEGFAYWGQGTLVTVSA
VL: B2 VL with V3M, M4L, I7T, C12P, N32S, K58N, T61F
modifications: MC-GGFG-DX8951 covalently attached to the antibody (maleimide); site not stated; the DAR could not be calculated
IC50 for cell death, T47D cells [2]: 504 nM | IC50 for cell death, T47D COSMC-KO cells [3]: 4.5 nM

B6: GO-13C3-Human-v1 (vc-PAB-MMAE ADC) (other)
VH: EVQLVESGGGLVQPGGSLRLSCAASGFTFSDAWMDWVRHAPGKGLEWVAELRSKAFNHATYYAESVKGRFTISRDDSKNSVYLQMNSLKTEDTAVYYCTPNWDEGFAYWGQGTLVTVSS
VL: DVVMTQSPLSLPVTLGQPASISCRSSQSLVHSNGNTYLHWYQQRPGQSPRLLINKVSNRFSGVPDRFSGSGSGTDFTLKISRVEAEDVGVYFCSQSTHVPRTFGGGTKVEIK
modifications: Cleavable MMAE with maleimide (vc-PAB-MMAE) covalently linked; site not stated; DAR ~4
IC50 for cell death, T47D cells [4]: > 100000 nM | IC50 for cell death, T47D COSMC-KO cells [5]: 5.03 nM

B7: 13C3-HV-23-B/13C3 KV2-A (antibody, V domains shown)
VH: B6 VH with V5L, H39Q, A49S, S80T, V81L, K89R, T90A
VL: B6 VL
notes: Humanized 13C3; also called HV23B/KV2A; humanized 13C3 candidate 3
Kd [6]: 0.85 nM | EC50 [7]: 0.0191 µg/mL

B8: GO-13C3-Human-v2 (vc-PAB-MMAE ADC) (other)
VH: B6 VH with V5L, H39Q, A49S, S80T, V81L, K89R, T90A
VL: B6 VL
modifications: Cleavable MMAE with maleimide (vc-PAB-MMAE) covalently linked; site not stated; DAR ~4
IC50 for cell death, T47D cells [4]: > 100000 nM | IC50 for cell death, T47D COSMC-KO cells [5]: 5.4 nM

B9: 13C3-HV-72-B/13C3 KV2-A (antibody, V domains shown)
VH: B6 VH with H39Q, A49G, V81L
VL: B6 VL
notes: Humanized 13C3; also called humanized 13C3 candidate 4
Kd [6]: 8.2 nM | EC50 [7]: 0.0257 µg/mL

B10: 13C3-HV-23-C/13C3 KV2-A (antibody, V domains shown)
VH: B6 VH with V5L, H39Q, A49S, L51I, K54S, S80T, V81L, K89R, T90A
VL: B6 VL
notes: Humanized 13C3; also called humanized 13C3 candidate 5
Kd [6]: 23.5 nM | EC50 [7]: 0.0155 µg/mL

B11: 13C3-HV-72-A/13C3 KV2-A (antibody, V domains shown)
VH: B6 VH
VL: B6 VL
notes: Humanized 13C3; also called HV-72A/KV2A; humanized 13C3 candidate 2
Kd [6]: 3.1 nM | EC50 [7]: 0.0262 µg/mL

B12: 13C3-CART (other)
chain: DVVMTQTPLSLPVSLGDQASISCRSSQSLVHSNGNTYLHWYLQKPGQSPKLLINKVSNRFSGVPDRFSGSGSGTDFTLKISRVEAEDLGVYFCSQSTHVPRTFGGGTKLEIKGGGGSGGGGSGGGGSEVKLEDSGGGLVQPGGSMKLSCAASGFTFSDAWMDWVRHSPEKGLEWVAELRSKAFNHATYYAESVKGRFTISRDDSKSTVYLQMNSLRAEDTGIYYCTPNWDEGFAYWGQGTLVTVSATTTPAPRPPTPAPTIASQPLSLRPEACRPAAGGAVHTRGLDFACDFWVLVVVGGVLACYSLLVTVAFIIFWVRSKRSRLLHSDYMNMTPRRPGPTRKHYQPYAPPRDFAAYRSRVKFSRSADAPAYQQGQNQLYNELNLGRREEYDVLDKRRGRDPEMGGKPRRKNPQEGLYNELQKDKMAEAYSEIGMKGERRRGKGHDGLYQGLSTATKDTYDALHMQALPPR
Time to kill 50% of cells (KT50), HaCAT COSMC-KO target cells, T cell ratio 10:1 [8]: 7.3 h

B13: 13G2-CART (other)
chain: DVVMTQIPLSLCVSLGDQASISCRSSQSLVHNNGNTYLHWYLQKPGQSPKLLINKVSKRFTGVPDRFSGSGSGTDFTLKISRVEAEDLGVYFCSQSTHVPRTFGGGTKLEIKGGGGSGGGGSGGGGSEVRLEESGGGLVQPGGSMKLSCVASGFTFSDAWMDWVRQSPERGLEWVAELRSKTFNHATYYAESVRGRFTISRDDSKSTVYLQMNSLRAEDTGIYYCSPNWDEGFAYWGQGTLVTVSATTTPAPRPPTPAPTIASQPLSLRPEACRPAAGGAVHTRGLDFACDFWVLVVVGGVLACYSLLVTVAFIIFWVRSKRSRLLHSDYMNMTPRRPGPTRKHYQPYAPPRDFAAYRSRVKFSRSADAPAYQQGQNQLYNELNLGRREEYDVLDKRRGRDPEMGGKPRRKNPQEGLYNELQKDKMAEAYSEIGMKGERRRGKGHDGLYQGLSTATKDTYDALHMQALPPR
Time to kill 50% of cells (KT50), HaCAT COSMC-KO target cells, T cell ratio 10:1 [8]: 8.75 h
